# Like-named read-outs stand apart in the source and are kept apart here. Where a SMILES comes first, the peptide text is derived from it. The star is where a group is joined. Biotin = O=C1N[C@H]2[C@H](CS[C@H]2CCCCC(=O)*)N1; Myristoyl = CCCCCCCCCCCCCC(=O)*
# How the values were obtained:
# [1] = test system: SIRT6; details: SIRT6 inhibitor, cited from earlier work
# Source text: Table 2 The inhibitors of SIRT6 were represented with structure, IC50, category, company, indications, and reference. | column: IC50
# [2] = test system: B‐H3K9^Ac‐5R; assay: Deacetylase activity by HPLC; format: biochemical; details: UV 220 nm, 6 µM enzyme, 450 µM peptide, Tris‐HCl pH 8.0, 6 mM MgCl2, 1 mM NAD^+, 30 °C, 4 h
# Description: (§1) The expression plasmids were transformed in the E.coli Arctic Express (DE3) cells, respectively. The E.coli cells were cultured at 37 °C in 2X YT culture medium. When OD600 reached 0.8, cells were induced by 0.2 mM isopropyl‐1‐thio‐β‐D‐galactopyranoside (IPTG) for 18–20 h at 16 °C. Then, cells were harvested by centrifugation at 6000 rpm for 10min at 4 °C and resuspended in lysis buffer (20 mM Tris‐HCl pH 7.2, 500 mM NaCl, 2% glycerol). Cells were lysed by a high‐pressure homogenizer (Avestin), and centrifuged at 15 000 rpm for […] min at 4 °C. The supernatants were incubated with Ni^+ Sepharose (GE Healthcare) which was pre‐equilibrated in lysis buffer. The resin was washed with 20 column volumes of lysis buffer supplemented with 50 mM imidazole, and then the recombinant proteins were eluted with lysis buffer supplemented with 500 mM imidazole. The eluted fractions were pooled, buffer exchanged (20 mM Tris‐HCl pH 7.2, 250 mM NaCl, 10% glycerol), and concentrated. Finally, the endotoxin was removed by the Pierce High‐Capacity Endotoxin Removal Spin Columns. The purified proteins were stored at −80 °C.
# (§2) The peptides B‐H3K9‐5R (biotin‐[…]), B‐H3K9^Ac‐5R (biotin‐KQTARK^Ac[…]), and B‐H3K9^Myr‐5R (biotin‐KQTARK^Myr[…]) were synthesized. Five arginine residues were added to ensure that the peptides were soluble in water. SIRT6 protein SIRT6 and mutants (6 µM) were incubated with the peptides (450 µM) in the reaction system ([…] Tris‐HCl pH 8.0, 6 mM MgCl2, 1 mM NAD^+) at 30 °C. After 4 h, the reactions were terminated by adding 4% TFA at 37 °C for 10 min. After centrifuging at 12 000rpm for 15 min at room temperature, the supernatants were collected and analyzed via HPLC using an Aeris peptide XB‐C18 column (150 × 4.6 mm, 3.6 µm; Phenomenex, USA). The mobile phase consisted of solvent A (0.1% TFA in HPLC‐grade H2O) and solvent B (0.1% TFA in HPLC‐grade acetonitrile). Peptides were eluted in a linear gradient of 0–90% solvent B at 1 ml min^−1 over 19 min. The column temperature was set at 25 °C, and the peptides were monitored with UV light (220 nm).
# [3] = test system: B‐H3K9^Myr‐5R; assay: Demyristoylase activity by HPLC; format: biochemical; details: UV 220 nm, 6 µM enzyme, 450 µM peptide, Tris‐HCl pH 8.0, 6 mM MgCl2, 1 mM NAD^+, 30 °C, 4 h
# Description: as §1, §2
# [4] = test system: aortic endothelium (VE-Cadherin junction continuity); assay: En face VE-Cadherin staining of descending aortas; format: in vivo, mouse
# Description: Endothelial specific Sirt6 KO (ecSirt6^−/− ) mice (on a C57/Bl6J background) were developed by Cyagen Biosciences lnc. and litter of wild‐type (WT) mice served as control. Genotyping by tail preparation and PCR were performed at 2 weeks of age. All animal procedures were conducted under animal welfare guidelines and were approved by the Animal Ethics Committee of Zhongshan Hospital, Fudan University (EARIA‐389).
# The cultivation and collection of mice were described above. Remove the outer membrane and longitudinally cut the thoracic aorta of mice for surface staining. After being fixed in 4% paraformaldehyde for 20 min, 0.5% Triton X‐100 was infiltrated into PBS for 30 min, and 10% normal goat serum was blocked in PBS for 1 h. Then, the corresponding primary antibody was incubated overnight at 4 °C. Then, wash HUVECs or tissues three times with PBS, coupled with the corresponding Alexa Fluor 488‐conjugated goat anti‐rabbit IgG (Thermo, cat#A‐11008) or Alexa Fluor 594 ‐conjugated goat anti‐mouse IgG (Thermo, cat#A‐11 005) (1:500; at room temperature, place in a closed solution for 1 h). Cover the slide with DAPI containing fluorine shielding adhesive medium. Randomly select representative images from each group. Fluorescence signal detection was performed using Leica confocal laser scanning microscope (Leica SP8).
# [5] = target: T1, SIRT6 (Homo sapiens, UniProt Q8N6T7); assay: Biolayer interferometry, SIRT6; format: binding; details: BLI, PBS-T, cofactor 5 mM
# T1 construct: the full‐length human SIRT6 (1‐355aa) with the flag tag at the C‐terminus; His-tag (N); made in house; host or cells: E. coli ArcticExpress (DE3), pET28a
# T1 sequence (Q8N6T7 whole entry): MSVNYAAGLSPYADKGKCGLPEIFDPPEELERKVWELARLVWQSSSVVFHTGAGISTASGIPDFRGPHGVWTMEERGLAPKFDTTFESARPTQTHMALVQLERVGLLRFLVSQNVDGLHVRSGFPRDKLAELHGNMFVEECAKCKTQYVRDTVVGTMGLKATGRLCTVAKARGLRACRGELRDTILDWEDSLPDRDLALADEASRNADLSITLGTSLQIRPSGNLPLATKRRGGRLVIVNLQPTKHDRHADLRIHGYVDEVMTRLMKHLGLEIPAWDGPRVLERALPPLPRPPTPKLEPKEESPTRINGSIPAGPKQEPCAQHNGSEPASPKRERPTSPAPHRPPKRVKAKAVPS
# Source text: (§3) The plasmid pUC57‐SIRT6 contained the full‐length human SIRT6 (1‐355aa) with the flag tag at the C‐terminus. The PCR fragment SIRT6‐Flag from pUC57‐SIRT6 was inserted into pET28a vector to obtain the plasmid pET28a‐SIRT6. Then the pET28a‐SIRT6G60A, pET28a‐SIRT6R65A, pET28a‐SIRT6S56Y, and pET28a‐SIRT6H133Y expression plasmids were obtained through site‐directed mutagenesis by PCR. These SIRT6 expression plasmids were used for SIRT6 expression and purification in E.coli.
# (§4) The expression plasmids were transformed in the E.coli Arctic Express (DE3) cells, respectively. The E.coli cells were cultured at 37 °C in 2X YT culture medium. When OD600 reached 0.8, cells were induced by 0.2 mM isopropyl‐1‐thio‐β‐D‐galactopyranoside (IPTG) for 18–20 h at 16 °C. Then, cells were harvested by centrifugation at 6000 rpm for 10min at 4 °C and resuspended in lysis buffer (20 mM Tris‐HCl pH 7.2, 500 mM NaCl, 2% glycerol). Cells were lysed by a high‐pressure homogenizer (Avestin), and centrifuged at 15 000 rpm for room temperature min at 4 °C. […]
# (§5) To determinate the affinity of SIRT6 proteins to myristoylated peptides, BLI assays were performed in 96 well plates using an Octet Red96 System. […] Meanwhile, the protein‐peptide affinities were also determined after adding several cofactors (5 mM), such as Mg^2+, Zn^2+, ATP, ADP, AMP, cAMP, NAD^+.
# [6] = target: T2, SIRT6 G60A (Homo sapiens, UniProt Q8N6T7, G60A); assay: Biolayer interferometry, G60A mutant; format: binding; details: BLI, Octet Red96, PBS-T, 120 µM biotin peptide on sensor, analyte G60A 0.18 to 5.5 µM
# T2 construct: the full‐length human SIRT6 (1‐355aa) with the flag tag at the C‐terminus; made in house; host or cells: E. coli ArcticExpress (DE3), pET28a
# T2 sequence (Q8N6T7 whole entry G60A): as the sequence (Q8N6T7 whole entry) above, with G60A counted along it
# Source text: as §3, §4, §5
# [7] = target: T3, SIRT6 H133Y (dSIRT6) (Homo sapiens, UniProt Q8N6T7, H133Y); assay: Co-immunoprecipitation enrichment of myristoylated peptide; format: binding; details: Co-IP with negative control peptide, n=3
# T3 construct: the full‐length human SIRT6 (1‐355aa) with the flag tag at the C‐terminus; made in house; host or cells: E. coli ArcticExpress (DE3), pET28a
# T3 sequence (Q8N6T7 whole entry H133Y): as the sequence (Q8N6T7 whole entry) above, with H133Y counted along it
# Description: SIRT6/mutants (10 µM) were incubated with B‐H3K9^Myr‐5R or B‐H3K9‐5R (7 µM) in different IP buffers based on buffer (1X PBS, 0.2% tween‐20) at 30 °C for 4h. Then the mixtures were incubated with magnetic flag‐beads at room temperature for 2h. Then, tubes were placed on a magnetic rack for 1 minute, and the supernatants were discarded. The beads were washed three times with an IP buffer and eluted with different elution buffers. The eluants and beads were then analyzed by western blotting with biotin monoclonal antibody or SIRT6 antibody.
# [8] = test system: ATF2 localization and PRKCD/VE‐cadherin axis in HUVECs; assay: ALK14 versus myristic acid, ATF2 localization and PRKCD/VE-cadherin axis; format: cell-based; details: each 10 μg/ml, 12 hours
# Description: Protein samples were separated by SDS/PAGE and transferred to the PVDF membrane. The membrane was blocked with 5% BSA in TBST (25 mM Tris, pH 7.4, 150 mM NaCl, 0.1% Tween‐20), incubated with primary antibodies and secondary antibodies in TBST, and then treated with ECL Plus western blotting detection reagents (Bio‐rad). The chemiluminescence signal was analyzed by ChemiDoc imaging system (Bio‐rad).
# HMEC‐1, obtained from Shanghai Zhong Qiao Xin Zhou Biotechnology, was cultured in MCDB131 medium containing 10% foetal bovine serum (FBS) and 1% antibiotics (penicillin and streptomycin) in 5% CO2 incubator at 37 °C. HUVEC, obtained from Shanghai Zhong Qiao Xin Zhou Biotechnology, were cultured in ECM medium containing 5% FBS, 1% antibiotics (penicillin and streptomycin) and 1% endothelial cell growth supplement (ECGS) in 5% CO2 incubator at 37 °C. HEK 293T were obtained from ATCC, and cultured in Dulbecco's modified Eagle's medium (DM EM) containing 10% FBS and 1% antibiotics (penicillin and streptomycin) in 5% CO2 incubator at 37 °C. The SIRT6 KO 293T cells were constructed by Hanbio Biotechnology, the SIRT6 gRNA was 5′‐[…]‐3′. SIRT6 overexpression and knockdown recombinant lentivirus were constructed by Hanbio Biotechnology, the vector pGLV3‐harboring SIRT6 and SIRT6 shRNA (5′‐[…]‐3′) were used for lentivirus packaging. […]
Molecule,deacetylase activity [2],demyristoylase activity [3],further results
CN1CCN(c2ccc([N+](=O)[O-])c(N)c2)CC1 [5‐(4‐methylpiperazin‐1‐yl)‐2‐nitroaniline],,,IC50 ([1]; ref [65]): 4.93 µM
S56Y: SIRT6 S56Y mutant,lacked both enzymatic activities,lacked both enzymatic activities,
NC(=O)c1ccc[n+]([C@@H]2O[C@H](COP(=O)([O-])O)[C@@H](O)[C@H]2O)c1 [NMN],,,"endothelial damage induced by high‐fat diet in SIRT6‐deficient endothelium ([4]; NMN 100 mg kg^−1 day^−1, n = 6–8): partially rescued endothelial damage"
R65A: SIRT6 R65A mutant,weak deacetylase activity,lacked demyristoylase activity,
G60A: SIRT6 G60A mutant,without detectable deacetylase activity,strong demyristoylase activity,
Cc1nn(C)c(C)c1NS(=O)(=O)c1c(Cl)cc(-c2ccnc(N3CCNCC3)c2)cc1Cl [DDD85646],,,"therapeutic efficacy ([4]; 100 mg kg^−1 day^−1, n = 6–8): suboptimal therapeutic efficacy"
Nc1ncnc2c1ncn2[C@@H]1O[C@H](COP(=O)(O)OP(=O)(O)OP(=O)(O)O)[C@@H](O)[C@H]1O [ATP],,,effect of cofactor on SIRT6 affinity for B‐H3K9^Myr‐5R [5]: significantly enhanced SIRT6 affinity
CCCCCCCCCCCCCC(=O)NCCCC[C@H](NC(=O)[C@H](CCCNC(=N)N)NC(=O)[C@H](C)NC(=O)[C@@H](NC(=O)[C@H](CCC(N)=O)NC(=O)[C@H](CCCCN)NC(=O)CCCC[C@@H]1SC[C@@H]2NC(=O)N[C@@H]21)[C@@H](C)O)C(=O)N[C@@H](CO)C(=O)N[C@H](C(=O)NCC(=O)NCC(=O)N[C@@H](CCCCN)C(=O)N[C@@H](C)C(=O)N[C@@H](CCCNC(=N)N)C(=O)N[C@@H](CCCNC(=N)N)C(=O)N[C@@H](CCCNC(=N)N)C(=O)N[C@@H](CCCNC(=N)N)C(=O)N[C@@H](CCCNC(=N)N)C(=O)O)[C@@H](C)O [B‐H3K9^Myr‐5R] (Biotin-KQTARK(Myristoyl)STGGKARRRRR-OH),,,Kd [6]: 1.3 ± 0.11 µM
H133Y: SIRT6 H133Y mutant,lacked both enzymatic activities,lacked both enzymatic activities,selectivity of H133Y for myristoylated peptide [7]: confirmed the selectivity
"CCCCCCCCCCCCCC(=O)O [natural myristic acid, Myristic acid]",,,"impact on ATF2 localization and PRKCD/VE‐cadherin axis, myristic acid versus ALK14 [8]: equivalent impacts"
Nc1ncnc2c1ncn2[C@@H]1O[C@H](COP(=O)(O)OP(=O)(O)O)[C@@H](O)[C@H]1O [ADP],,,effect of cofactor on SIRT6 affinity for B‐H3K9^Myr‐5R [5]: significantly enhanced SIRT6 affinity
O=C(Nc1ccc(O)c(C(=O)O)c1)c1cccc(NC(=O)c2ccco2)c1 [OSS‐128167],,,IC50 ([1]; ref [68]): 89 µM
Diquercetin,,,IC50 ([1]; ref [64]): 130 µM
"SIRT6 WT: full‐length human SIRT6 (1‐355aa) with the flag tag at the C‐terminus, expressed in E.coli",weak deacetylase activity,significant demyristoylase activity,

# — article PMC12591191, “SIRT6 Lysine‐Demyristoylates ATF2 to Ameliorate Vascular Injury via PRKCD/VE‐Cadherin Pathway Regulating Vascular Endothelial Barrier” (Advanced Science, 2025)
